{"source": "patent US20210063414A1", "about": "“METHODS FOR PREVENTING AND/OR TREATING BONE LOSS CONDITIONS BY MODULATING IRISIN” (Dana-Farber Cancer Institute, Inc., priority 2018, published 2021)", "molecules": {"B1": {"name": "irisin: secreted cleaved form of FNDC5; recombinant human/mouse irisin with C-terminal his tag produced in HEK293 cells (protein)", "chain": "DSPSAPVNVTVRHLKANSAVVSWDVLEDEVVIGFAISQQKKDVRMLRFIQEVNTTTRSCALWDLEEDTEYIVHVQAISIQGQSPASEPVLFKTPREAEKMASKNKDEVTMKE", "modifications": "left off: small tags and cut ends", "notes": "secreted cleaved form of FNDC5; recombinant human/mouse irisin with C-terminal his tag produced in HEK293 cells"}}, "system": "MLO-Y4 cells", "assay": "Integrin-like signaling (pFAK, pZyxin, pAKT, pCREB) in MLO-Y4 cells, immunoblot", "type": "cell-based", "procedure": "Integrin heterodimer binds to its ligand. The interaction results in phosphorylation of FAK and Zyxin, followed by phosphorylation of AKT (at T308) and CREB. PM is plasma membrane. FIG. 2C and FIG. 2D show the immunoblots. MLO-Y4 cells were seeded and incubated until 60% cell density. The cells were incubated with serum free medium (FreeStyle™ 293 medium) for 4 hours and were treated for indicated time with 10 nM norepinephrine or irisin (FIG. 2C) or indicated concentrations of irisin for 10 minutes (FIG. 2D). Cells were lysed to detect the indicated protein level using immunoblot analysis.\nCertain materials and methods were used to generate the results described herein. For example, the data shown in FIG. 1A resulted from MLO-Y4 (an osteocyte-like cell line) cells treated with the indicated concentration of irisin and hydrogen peroxide for 4 hours. Cells were stained with Hoechst 33342 (ThermoFisher Scientific, catalog number H3570) and Eth-D1 (ThermoFisher Scientific, catalog number E1169) and analyzed to determine the percentage of cell death using ImageJ. The data shown in FIG. 2D resulted from MLO-Y4 incubated in serum free medium (FreeStyle™ 293 expression medium, ThermoFisher Scientific, catalog number 12338018) for 4 hours followed by treatment of indicated concentrations of irisin for 10 minutes. Cells were lysed to detect the indicated protein level using immunoblot analysis (Cell Signaling Technology, catalog numbers 3283S, 3285S, 8467S, 3553S, 9198S, and 9104S; Abcam, catalog number ab49900-100ul). The data shown in FIG. 3 resulted from 3T3-F442A cells incubated in serum free medium for 4 hours followed by treatment of indicated concentrations of irisin for 10 minutes. Cells were lysed by RIPA buffer to detect the indicated protein level using immunoblot analysis. The data shown in FIG. 4 were generated from 100 nM flag-tagged irisin (Enzo life sciences, catalog number ADI-908-307-3010) incubated with 5 nM of the indicated 6 his-tag integrins (R & D Systems Inc., catalog numbers 7064-AB-025, 5668-A4-050, 5438-A9-050, 6357-AB-050, and 6579-AV-025) in the presence of RGDS peptide (R & D Systems Inc., catalog number 3498/10) or its control peptide (Enzo Life Sciences, catalog Number BML-P701-0005) followed by immunoprecipitation using 6 his-tag beads (ThermoFisher Scientific, catalog number R901-01). Co-precipitated irisin was analyzed by immunoblot analysis against flag tag (Sigma Aldrich, catalog number A8592). The data shown in FIGS. 5A and 5B were generated from MLO-Y4 cells treated and analyzed as in the experiments used to generate the data shown in FIG. 2D, except that pre-treatment of 100 nM RGDS (FIG. 5A) or echistatin (R & D Systems Inc., catalog number 3202/100U) (FIG. 5B) for 10 minutes was performed before irisin treatment. The data shown in FIGS. 6A and 6B were generated from MLO-Y4 cells incubated in serum free medium for 3 hours followed by treatment of indicated time of 10 nM irisin for 16 hours. RNAs were extracted from the cells and the sclerostin mRNA level was analyzed by qPCR (FIG. 6A) or treated and analyzed as in (FIG. 6A), except that pre-treatment of 10 μM RGDS, RGDyK (Selleck, catalog number S7844), or echistatin was performed for 10 minutes before irisin treatment. The data shown in FIGS. 7A and 7B were generated from 8 week-old mice injected with the indicated dose of irisin for 6 days. Tibias were collected and treated with collagenase to obtain mRNA from the osteocyte-enriched bones. Sclerostin mRNA level was analyzed by qPCR (FIG. 7A). Serum was collected to analyze the sclerostin protein level using ELISA kit (R&D Systems Inc., catalog number MSST00) (FIG. 7B). The data shown in FIG. 8 were generated from 8 week-old mice injected with the indicated dose of irisin for 6 days. Epididymal fats were collected, RNAs were extracted from the tissues, and mRNA levels of the indicated genes were analyzed by qPCR. […]", "data": [{"molecule": "B1", "values": [{"measurement": "phosphorylation of AKT on threonine 308", "setting": "MLO-Y4, 10 nM irisin", "value": "phosphorylated on threonine 308"}, {"measurement": "phosphorylation of AKT serine at amino acid 473", "setting": "MLO-Y4, 10 nM irisin", "value": "not induced"}, {"measurement": "time after which CREB was phosphorylated", "setting": "MLO-Y4, 10 nM irisin", "value": 5, "unit": "min"}, {"measurement": "time to phosphorylation of FAK", "setting": "MLO-Y4, 10 nM irisin", "value": 1, "unit": "min"}, {"measurement": "phosphorylation of Zyxin", "setting": "MLO-Y4, irisin dose response, 10 minutes", "value": "phosphorylated potently"}, {"measurement": "irisin dose as low as which induced phosphorylation of FAK", "setting": "MLO-Y4, serum free medium 4 hours, irisin 10 minutes", "value": 10, "unit": "pM"}]}]}
